From PMC13107021, “Structural basis for suramin binding to the C-terminal domain of the SARS-CoV-2 nucleocapsid protein”

Molecular target: SARS-CoV-2 N-CTD (nucleocapsid C-terminal domain) (SARS-CoV-2, UniProt P0DTC9 247-364)
Experiment: BLI; BLI and EMSA: 25 mM sodium phosphate, 50 mM NaCl, pH 6.0; EMSA 25 C, 30 min, 10 uM RNA, 20% native PAGE
Details: protein: recombinant; biotinylated for BLI; 15N-labelled for NMR; chain copies: 2; label: none

Binder AUAUGGAAGAGCCCUA (ssRNA) [15-nt SARS-CoV-2 genome-derived RNA] has a Kd of about 10.1 µM.
